Results from the DeepSol protein solubility set.

Assay: soluble on expression in E. coli; label from the status in PepcDB or PDB records

| Sequence | soluble on expression in E. coli |
| --- | --- |
| MCASFAKFAERWNPLPETLLSWSKNNCDKVQPRPRDMSCEDVVQFVADCNFSGGGPGPGKLADTTNRQVADTFYQRTYENSPRVLPKYIYYNENTARDYGQFGNWYYPNYYPPTYLGFFDGRPASMAQLENDYKFAKGGHYPYNRADNIVNIGLQQTYLPTCLHDLFYCVRASNGQRPQAYLNYKEYRRDRDQAAEQMAQRDQDIKTLRRHRTRHHEDDE | not soluble |
| MCASFSPTLDSRSRQLLRTLISCYIQNGEPIGSKTLAQQAGLDISPATIRNILADLEELGLLNSPHTSAGRVPTAHGYRMFVDSLVQMQPPSEDDIRRLRVEMTGGGTQTLLGSASEILSAMTHFVGVVSAPRREQFVFRHIDFVPLDARQIMAILIFADNEVQNRVIEPRRVYEPGELERVSNYLNAHFIGRTLADIRTTVLCELRKAKDEMEQLLAHSLDLASQMLVPNDSEDIVVTGQTRLMALQDLSDMDRLRELFEIFASKREILQLLERTIDAPGVRIFIGEETGMVSMEDISLVTAPYAAHGQVLGVLGVIGPKRMAYDRVIPLVQVVAQVLGTALEPPTMP | not soluble |
| MCENLYGEEYKMEILRLQKMMNNMTCGQMAKPLTMKDFQIHQALGKGAYGNVYRVRSLHDGKDYALKQIMISSKNEGIPQSVLREITVMKHLARKAHPNIISLKSVFHQLDPVRAILKINMIMERCDWDLHTFLRNIPRGVPEQQAKHVTAQIVRALDFLHTHSIIHRDLKPQNILLNRDQTVKLADFGLSKEYSNTTAFTTLVVTLWYRSPEVLLQSYYNSTVDMWALGCIVSEIYCRQPLFVGQNEAEQLTDIFKKMGTPVGKDWPSESVIARDSFPQYRPTNLKDLSPQMSKQAIEFVQQCLRYDHSKRLSARGALSHPFLKPAVATKSRVLKQINFNK | not soluble |
| MCIAAWVWQAHPQHQLLLLLNRDEFHSRPTKAVGWWGEGSKKILGGRDVLGGGTWMGCTKDGRLAFLTNVLEPDAMPGARTRGDLPLRFLQSNKSPLEVATEVAKEADEYNGFNLVLADLTTNVMVYVSNRPKGQPATIQLVSPGLHVLSNARLDSPWQKAIRLGKNFREHLRKHGDDEVEAKDIVERLMTDTTKADKDRLPNTGCDPNWEHGLSSIFIEVQTDQGLYGTRSTAVLSVNYDGEASLYEKYLESGIWKDHTVHYQIE | soluble |
| MCLDKMTDIRVRGYKSISFWQEEGIGLIVIRSDSHGRFDLNTLGEITAAIGIAAMDGSVRAVALTGMNNIFGRQLVIGQLSNNTVYNVMQSSSSLISMIYTFEKPIFSILNGDAIDEGYEIALLADRIISADDIKVGFSRDYEFKIGGSFTSLRMTKTDISGPAEGINVDRVVKHESLLEDAKNIIKETADINFPMRRRQRYRYISELINAEKINFYEHYLARS | not soluble |
| MCLVQATGGSSTHKLVSAGAEKMIITRPDFVDPPGSKDISITRTARAPKEDKLVIHFCTCRCN | not soluble |
| MCMMSHNKAFFLSLQHAAVSGVAVCLSVRRGAGSVPAGNRGKKTIITEYRITGTRALARCPTKPVTSMWNSSWTSRLEHHHHHH | not soluble |
| MCMTNSMSDALKTLEVFRPEVEEIDEREVKLSVAPDRVIAVLETLKSLGYSHLSLMTCIDWIEDSQFELVYILFSWKDGGKFIVTTRIDRNNPQFVTVKEIWPVARFYEREIHEFFGVKFSGNEDMKPLFLELWDDKPPLRKDFDPLEYSRRKFPGREYQKDVIDEAKKIFRGEING | soluble |
| MCNNEAKMSELLSVQSDAPAKKINLMDLTRQQMREFFKELGEKPFRADQLVKWIYHFGEDNFDNMTNINKKLREKLKAVAEIKAPEVAVEQRSADGTIKWAMQVGEQQVETVYIPEADRATLCVSSQVGCALACTFCSTAQQGFNRNLTVSEIIGQVWRASKIIGNFGVTGVRPITNVVMMGMGEPLLNVANVVPAMEIMLDDFAYGLSKRRVTLSTSGVVPALDNLSKMIDVALAISLHAPNDELRDEIVPINKKYNIKTLIDSVNRYLNVSNANHGKVTIEYVMLDHVNDGVEHAHQLAEVLKNTPCKINLIPWNPFPEAPYAKSSNTRIDRFQKTLMEYDFTVIIRKTRGDDIDAACGQLAGDVIDRTKRTAMKRQFGQNIGVTEVN | not soluble |
| MCPRTSCRFYPFTIDFGTFRMAIIHAKSMTIPTSKLVAFSDKFLQNLRCFNCAVMDIVKNDATLPLGHLEEYTPGNRIGNWIGPVKGINIPSHLKADFRKSQPLSITRSVREAEWCTPFINCTQYYICINHLFAERIATKLRQVMGHTMISNCVSLLYLTGDFRRSSRFSGPIESANITSNLEEHCWHSIVLDFFDFICINSMRAIIEGKYQCFRRFITKYLMFAFFNWYRISFENSIIMQNHFTCVRTTQMRHVVIPLFTLNKDSSITIKRNRPSNFLIVVALNLICLEHHHHHH | not soluble |
| MCQLDVASIGDIASYRLSPISKLRYLRHTESPKSPKSSIAIPRKRYKRYRQISRMPKNHFWKNGDISYTETHIGDIFNMPYFQISIFPISPSLSAINTTIARHEFSRRQKSQNAYFGQTHILLFTAAYSPFLEHHHHHH | soluble |
| MCTELEPHQRLKKIIDEIGVSQTKLACKYLGRATINKIIRGERPLNAAQAYKFIQRFKDFGYNADIELILGIPTKTIDSTVKKFLSNTKKHYLEFDKLIDKLYKDKAIEVIWNVIEKLDIQDVYKNANIILKYLTKLMQYDLDADIYLKVNIELIKIYTATANYERAITAFNSLKNFSILDRETKVKCFLNVALAYYNLREYKSSIDIASRVMKLKIFDKYYFKASIIKANVLYTDGRINESIKEYEKIAIKAEKYHFIEYVATSESNIGYVFTEQNKFNEAKLHLDEAMKLFDSLNNYYKLNVYDNVFGFKIKNNTADFDTFKKVILLAYDTNDKFRIKNNVKQFVNYAIRNKKSKEIFTKIIDFLNPKGIDLDSSLKLEIMEYVSGNTFESVLKLEHHHHHH | not soluble |
| MDALAIINKYYPEDNELKHILLAHSRSVADKALWIAGKHPELNLDKQFLEEAAMLHDIGIFMTDAEGICCFGSYPYICHGYLGADLMRKEGFPRHALVCERHTGAGMSLQSIIDQQLPVPHRNMVPVSLEEQVICFADKFFSKTHLDREKSVEKALKSISRYGEDGIIRFNHWCECFL | soluble |
| MDALNNKLYFIDSTKHKIFVEQIINGMHDWVRVIDINDNIIFVNESMAKALGKNVIGEKCYKAIGKSEPCENCTSRKAVFEGTIQAKEEIIGDRIFSVKSSPIRDENGQITAVVEVLRDITEMKKMQKKILEHNQKLQSELNMARRLQCSLLPKELPQDKIDFSYVYRPCEAIGGDFLDIFKIDDEHIGIYIADVSGHGVPASMLTVFLRSSINKKTLSPAEALNQLYKEFNRDYYDQELYITIFYAIIDTKNKNIIYSNAGHNASPVLFNHESHRFDILRIPGVPISDWVDNPEYTEKSISIEKGDRLFMYTDGIVELRNNKGEQFGEERLLNILLGEKMPPAMTLDRIIEAAMEFANIKNFNKIIDDITMALLEIL | soluble |
| MDANEKKEVIKKKYQEIAILGGSCCSGGCCGDSNSTDLSRSLGYSESDVQAVPDANMGLGCGNPTAFAELKPGDVVLDLGSGGGFDCFLAAQKIGSSGKVIGVDMTLEMVEKAQANARKYGYSNVEFRHGDIESLPVKDSSVDVIISNCVINLAPDKEKVFREAFRVLKPEGRMYISDMVLLDELPEELKNDSELLAGCIAGAVLKEEYLGLLKKAGFSVEILNEDLDISKRQYRDLPVESLKLKARVLEHHHHHH | soluble |
| MDAVQELERRIVELEIQSALQEDVIAGLNAMVAELRQTLDLQQAQLRLLYQKMQDRNPDAQEPYSLRDEIPPHY | not soluble |
| MDDREDLVYQAKLAEQAERYDEMVESMKKVAGMDVELTVEERNLLSVAYKNVIGARRASWRIISSIEQKEENKGGEDKLKMIREYRQMVETELKLICCDILDVLDKHLIPAANTGESKVFYYKMKGDYHRYLAEFATGNDRKEAAENSLVAYKAASDIAMTELPPTHPIRLGLALNFSVFYYEILNSPDRACRLAKAAFDDAIAELDTLSEESYKDSTLIMQLLRDNLTLWTSDMQGDGEEQNKEALQDVEDENQ | soluble |
| MDDSTLTELEAAAFRRLVAHLRERTDVQNIDLMNLAGFCRNCLSNWLKDAADAQGVAMSRDESREAVYGMPYETWKAKYQSTATPDQVEAFKKSHPHSH | not soluble |
| MDDTLFQLKFTAKQLEKLAKKAEKDSKAEQAKVKKALQQKNVECARVYAENAIRKKNEGVNWLRMASRVDAVASKVQTAVTMKGVTKNMAQVTKALDKALSAMDLQKVSAVMDRFEQQVQNLDVHTSVMEDSVSSATTLTTPQEQVDSLIVQIAEENGLEVLDQLSQLPEGASAVGESSVRSQEDQLSRRLAALRN | not soluble |
| MDEGVKEKFIGAVLGAAVGDALGKSVEDITEEEVFEFYGDRIRDFVTPHPSSPAYGQLPEETSDETTIFRLLLESLVEKKALDVRDFLNRLMEWYDREEMHRYPDPMLLTAIDLLSRGINPSTHGLTSFSVEGILRSVALGLYHYYNPELAAEGSKVVSLLTHRSDVISDASAILGALIAHLVRGDFYLEDFREKLRLIETLKDYAKEEKHKKILDRVAELLMESADLETAINTLGNGTFAFEAFPLALYIFLSNVENPEEALFQAVNSYGEFGGDTDAIGFLVGAMLGAYYGEEAIPYHLRENVENSQKLRELAERLYEVVEKQVGFSQ | not soluble |
| MDELLKAIKTKIAEMKKIELTGFTNTETATAYFQEKEAILEGIVKTLETITVQETSEVEALKSTVKSLREEIKGQAKSPRELSRRELLYNLGKGIAAAWSGNHKVLADLAFSPNLKSDNWTNPKDVSWGERGWTVSKAALGEPMGNMSPNNEQFLINPIYETEIMSDVAKKSVMMSLVRHRPMLGPSIFLPTRDRGGVQLNWLTAYGQKIEGSKPKGAERVELKAYTLAGFIPWFDEFEEDVFVDLGAMFIDEFIETYGQEFDRQCLLADDDPFTGAMACADVTEVTIKGDTIDDLTWKDFRDAVYKVPAEERKDCSWFLNETVLNHIANIEDTTGRPIWRRPTEAMPGRLDLYPYHEVSILPQIADIGENQAFAVFMNPKRIQHGNRRGIELKKFDGTTESLEYGELFLRFRKRDGFLVPDRKTTWSSLGHN | not soluble |
| MDELNPSPPVSEDPEHWYCTNMVGVPVGLIGSTAFNRCLRRITIHGTRETHPGLFRLLAACEYPATASEVFEHYMELEFGLAPGAHEPTQARYPTSYLDLLRGWGVESDCPKAAVLKGWVESRFGLVPTFHKQRLGLFPSSAWATYLQEKTDVRFHNNCIFQQFDLLYEYCQWSIRRFKTPGPRFVRLWRGTNDVEQQLVEGDARQRLCTVRLNNLVSFSDSKERAEEFGDWVLETEVPTVKLLFFPGLLQRQVLGYEGEFLVIGGNYKVRAYHGWFAAALEHHHHHH | not soluble |
| MDERDVLWVGVCAMPKKVESEPMQRILAALTSSRVAHFEPMIFDAKTLFERPIHKWPVCDALIAFHSEGFPLERAIAYAELRRPYCLNGLREQRMLLDRSKVYEVLARERVPVPRHIVVRHDGADVGRTDTRFVEHDDYIEYCGERLFKPFVEKPIDAEDHRVCIYYARPLYGRRRLFRKTANQSSVFEPGWRRVRREGAFIYEEFIPSEHQSDIKVYAVGPEYAYAERRKSPVVDGIVERNAHGKELRFPVELSTAERCVAATITAAFRQFVCGFDLIRHADGNAFYVNDVNGFSFVKGSQSYYESCGRILAEHLARECARSAAVDGE | not soluble |
| MDERFISFVCLLFTMEFQKYRTMHFPRDVYIGHDVLNRVLDVVDQNSRTRDVIIVTGNTTYELAGKKIVEILASSPYEVHLSFAGEANYENLKKIEEETNDVNAGIIIGVGGGTKIDLAKKLAYDKNLPFISIPTSPSHDGIASPRASLRRNGISYSEEGAMPIGVIADTSVMIKAPYRYLAAGAADVISNISAVKDWKLAHRLRGEEFSSSAAAMSEYSAQEVISQVGEIRKYDESSVWLVTKNILASGTAMAIAGNSRPGSGSEHLFAHALEAAGVNNMLHGEMCAMGTIVSLYLHDDNWQKIRDVFESLGVSVKARDYGLKEEVVIEALRRAHAIRPERYTILGESDMSYDAAVKALELTGII | not soluble |
